The values that follow come from publication PMC2364237.

This assay concerns the target GST-Grb2(SH2) SH2 domain (UniProt P62993). Description: GST-Grb2(SH2) pull-down, anti-HA blot. Particulars: reference: HA-ShcWT; sites Y317.

On to “HA-tagged Shc (52 kDa isoform) (from UniProt P29353-2) HA-ShcY317F”, for which the “binding against the reference” value is reported as “weaker”.
